Results from patent publication US20210260113A1, “DEVICES, METHODS, COMPOSITIONS AND SYSTEMS FOR THE TREATMENT OF AGING AND AGE-RELATED DISORDERS” (Gero LLC, priority 2018, published 2021).
No end group written: not given here.

Target: T1, NBL1 (AA 1-180) protein (FcTag) (Homo sapiens, UniProt P41271)
T1 construct: NBL1 (AA 1-180) protein (FcTag); purchased SinoBiological (via AntibodiesOnline) BIN2002229
T1 sequence (P41271 17-180): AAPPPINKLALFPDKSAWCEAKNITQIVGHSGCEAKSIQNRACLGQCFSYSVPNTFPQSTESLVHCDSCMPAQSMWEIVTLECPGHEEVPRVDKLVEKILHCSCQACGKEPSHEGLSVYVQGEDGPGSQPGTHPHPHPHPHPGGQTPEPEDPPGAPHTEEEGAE
Experiment: PEPperCHIP Discovery Microarray screening of cyclic peptide binders
Type: binding
Details: cyclic peptides of common structure S1 with the given SEQ; NBL1 at 10 μg/ml
From the text: The peptide target binder discovery screening was done with PEPperCHIP® Discovery Microarrays with 36,040 random peptides with alength of 12 amino acids printed in duplicate (72,080 peptide spots). After peptide synthesis, all peptides were cyclized via a thioetherlinkage between a C-terminal cysteine side chain and an appropriately modified N-terminus. The PEPperCHIP® Discovery Microarrays contained additional myc(EQKLISEEDL, 415 spots) and HA (YPYDVPDYAG, 420 spots) control peptides as specified in the peptide maps of the microarray data files.
Samples: NBL1 (AA 1-180) protein (FcTag) (SinoBiological, AntibodiesOnline BIN2002229) Washing Buffer: PBS, pH 7.4 with 0.005% Tween 20 (2×10 sec after each assay) Blocking Buffer: Rockland blocking buffer MB-070 (30 min before the first assay) Incubation Buffer: Washing buffer with 1% blocking buffer Assay Conditions: Protein concentrations of […] in incubation buffer; incubation for 16 h at 4° C. and shaking at 140 rpm Secondary Antibodies: Mouse natriuretic peptides B DyLight800 antibody (1:5000; Hytest, AntibodiesOnline product ABIN263370), goat anti-human IgG (Fc) DyLight680 (1:5000); 45 min staining in incubation buffer at RT Control Antibodies: Mouse monoclonal anti-HA (12CA5) DyLight680(1:2000), mouse monoclonal anti-HA (12CA5) DyLight800 (1:2000); 45 min staining in incubation buffer at RT Scanner: LI-COR Odyssey Imaging System; scanning offset 0.65 mm, resolution 21 μm, scanning intensities of 7/7 (red=700 nm/green=800 nm)
After 15 min pre-swelling in washing buffer and 30 min in blocking buffer, two PEPperCHIP® Discovery Microarrays were initially incubated with the secondary antibodies mouse natriuretic peptides B DyLight800 (1:5000) and goat anti-human IgG (Fc) DyLight680 (1:5000) as well as with the control antibodies in incubation buffer to analyze background interactions with the 36,040 different random cyclic constrained peptides of the microarrays. Subsequent incubation of the PEPperCHIP® Discovery Microarrays was done with target proteins NBL1 at concentrations of 1 μg/ml and 10 μg/ml in incubation buffer and followed by staining with the secondary antibodies as well as read-out with a LI-COR Odyssey Imaging System at scanning intensity of 7/7 (red/green). The additional HA peptides framing the peptide microarrays were simultaneously stained as internal quality control to confirm the assay quality and the peptide microarray integrity.
A software algorithm breaks down fluorescence intensities of each spot into raw, foreground and background signal, and calculates averaged median foreground intensities and spot-to-spot deviations of spot duplicates. We tolerated a maximum spot-to-spot deviation of 40%, otherwise the corresponding intensity value was zeroed. Based on averaged median foreground intensities, an intensity map was generated and interactions in the peptide map highlighted by an intensity color code with red(NBL1 for high and white for low spot intensities.
To identify the top interactions of the target proteins, the averaged and corrected intensity values were sorted by decreasing spot intensities. We further plotted averaged spot intensities of all assays against the microarray content from left on top to right on bottom of the chip to visualize overall spot intensities and signal-to-noise ratios. For a better data overview, the baselines of the intensity plots were leveled and main responses annotated next to the corresponding signal. The intensity plots were correlated with peptide and intensity maps as well as with visual inspection of the microarray scans to identify peptides that interacted with target proteins NBL1.

Sequence	intensity values, 10 μg/ml
ARMRQTHRPVYR	317.5
ARQSHRRPGGKR	338
CHCIHFTHRRLR	290
DFKQLLLPGRKR	216
DMAARCVCKRRR	554
DSRKFFYRGNRR	328
FDWRISQRMRRR	448
FPMCQKVPFVRR	174.5
FPQSRGRGKLWR	195
FWFHLKYWAWRR	215
GDRGCFFIVTFI	214
GRHLPEASKRFR	192
HTWPYALTQKRR	176.5
IRHSDRVDRYSR	172
IYFYSCSVPGMY	233
KQRSKRMASMKLF	249
KVALFLANRLFR	181
KVRALRDISYRR	190.5
LFENCANVCIGL	193.5
LGPAACFTSEPV	212.5
LRLFKISRNFPR	177
LRNVVFIWHIRYR	213
LVMWHRHFALRR	185
MFFRPFKGHGRR	251.5
NCYHMVYYLIIL	185

Sequence	intensity values, 10 μg/ml
NKQMNHPPRRHR	210
RFNHVTCRTFKR	301.5
RFTYSPTQRAYR	186
RHGTRYHSRLFR	179.5
RKKDPRAYDRFR	294.5
RPRHVFKLYGRL	205
RQNANKAWQKRR	182.5
RRRAQPSPMRHK	187
RYNQSIRVIIGR	234
SQKMLRRGGMIRK	236.5
SRHNYSHWFYRR	198
TLRCHRHRFR	489
TYDNYIRYFRIR	175
VDFGGGWVCFCP	189
VHQCRASRYPRI	235.5
WVARDHVNHNRR (not fully specified (C-terminus, bridges); also: cyclized via thioether between C-terminal Cys side chain and modified N-terminus)	189
WVRIRLSRRQFR (not fully specified (C-terminus, bridges); also: cyclized via thioether between C-terminal Cys side chain and modified N-terminus)	235
YGSHYYWNHLRR (not fully specified (C-terminus, bridges); also: cyclized via thioether between C-terminal Cys side chain and modified N-terminus)	185
YHATGVRWRFLR (not fully specified (C-terminus, bridges); also: cyclized via thioether between C-terminal Cys side chain and modified N-terminus)	445
YHHKPQRQNRGR (not fully specified (C-terminus, bridges); also: cyclized via thioether between C-terminal Cys side chain and modified N-terminus)	283
YMPSNCCWWWRR (not fully specified (C-terminus, bridges); also: cyclized via thioether between C-terminal Cys side chain and modified N-terminus)	197
YWHKKLYYMRYR (not fully specified (C-terminus, bridges); also: cyclized via thioether between C-terminal Cys side chain and modified N-terminus)	200.5
YWTKGLLWRNRR (not fully specified (C-terminus, bridges); also: cyclized via thioether between C-terminal Cys side chain and modified N-terminus)	323
YYRIHHQRRGRS (not fully specified (C-terminus, bridges); also: cyclized via thioether between C-terminal Cys side chain and modified N-terminus)	452
